The source of these data is the supplement of paper PMC7877785.

± gives the uncertainty stated by the source.

A short description of this data set: self-splicing fitness, log relative to wild type (ln ratio); higher = more splicing; Tetrahymena group I intron in knt gene, E. coli kanamycin selection, DiMSum; sequences stand for … in CUCUCU…GGAGGGAAAAGUUAUCAGGCAUGCACCUGGUAGCUAGUCUUUAAACCAAUAGAUUGCAUCGGUUUAAAAGGCAAGACCGUCAAAUUGCGGGAAAGGGGUCAACAGCCGUUCAGUACCAAGUCUCAGGGGAAACUUUGAGAUGGCCUUGCAAAGGGUAUGGUAAUAAGCUGACGGACAUGGUCCUAACCACGCAGCCAAGUCCUAAGUCAACAGAUCUUCUGUUGAUAUGGAUGCAGUUCACAGACUAAAUGUCGGUCGGGGAAGAUGUAUUCUUCUCAUAAGAUAUAGUCGGACCUCUCCUUAAUGGGAGCUAGCGGAUGAAGUGAUGCAACACUGGAGCCGCUGGGAACUAAUUUGUAUGCGAAAGUAUAUUGAUUAGUUUUGGAGUACUCGUGGUCG
The method in brief:
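A randomised library covering all eight P1ex-region intron nucleotides was built with the intron in the knt kanamycin-resistance gene on pET-22b(+) and held in E. coli BL21(DE3). Cells were grown overnight at 37°C or 30°C on LB agar, with or without 25 μg/mL kanamycin, plus 100 μg/mL carbenicillin, 50 μM IPTG and 0.2% rhamnose, and pooled colonies were amplicon-sequenced on an Illumina HiSeq 2500. DiMSum fitness is the error-weighted combination of wild-type-normalised replicate fold changes, kanamycin versus none.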

For the sequence CCGUAGCAAUAUUACGUCCA, the “self-splicing fitness (ln)” value (30 °C) is -2.27 ± 0.28 and the “self-splicing fitness (ln)” value (37 °C) is -3.26 ± 0.28.

In the case of UGUUAGCAAUAUUACGACCA, the “self-splicing fitness (ln)” value (30 °C) stood at 0.586 ± 0.18 and the “self-splicing fitness (ln)” value (37 °C) is -0.351 ± 0.24.

For the sequence CAGUAGCAAUAUUACGGCAU, the “self-splicing fitness (ln)” value reads like this: (30 °C) -4.45 ± 0.27; (37 °C) -1.78 ± 0.18. For GGUUAGCAAUAUUACGUAAA the same measures were -1.22 ± 0.13 and -0.462 ± 0.2. For ACCCAGCAAUAUUACGGUAC the same measures were -2.51 ± 0.081 and -0.741 ± 0.078.

Take GUGGAGCAAUAUUACGAAUG: the “self-splicing fitness (ln)” value runs as follows: (30 °C) -3.75 ± 0.4; (37 °C) -1.77 ± 0.37. For UCAUAGCAAUAUUACGAGAU the same measures were -3.85 ± 0.21 and -3.29 ± 0.26.

For GCCUAGCAAUAUUACGAUCG, the “self-splicing fitness (ln)” value runs as follows: (30 °C) -2.05 ± 0.15; (37 °C) -1.36 ± 0.18. For GCUCAGCAAUAUUACGACGG the same measures were -2.33 ± 0.18 and -1.3 ± 0.16.

Regarding GUAUAGCAAUAUUACGUGUG, the “self-splicing fitness (ln)” value (30 °C) is -3.28 ± 0.14 and the “self-splicing fitness (ln)” value (37 °C) was -2 ± 0.13. For the sequence GUCAAGCAAUAUUACGCCCU, the “self-splicing fitness (ln)” value by setting is: (30 °C) -0.585 ± 0.16; (37 °C) 0.51 ± 0.15. Turning to UACAAGCAAUAUUACGUUGU, the “self-splicing fitness (ln)” value (30 °C) is -3.58 ± 0.12 and the “self-splicing fitness (ln)” value (37 °C) was -2.99 ± 0.14. On to AUCCAGCAAUAUUACGAACC, for which the “self-splicing fitness (ln)” value was -0.394 ± 0.1 (30 °C) and -0.346 ± 0.15 (37 °C).

Regarding UUACAGCAAUAUUACGAACA, the “self-splicing fitness (ln)” value is, setting by setting: (30 °C) -0.742 ± 0.11; (37 °C) -1.07 ± 0.12. The corresponding values for AUAGAGCAAUAUUACGGCGU are 0.102 ± 0.079 and 0.527 ± 0.12. The corresponding values for AAAAAGCAAUAUUACGAGAA are -2.33 ± 0.33 and -0.686 ± 0.27.

For ACAGAGCAAUAUUACGGAGA, the “self-splicing fitness (ln)” value reads like this: (30 °C) -3.21 ± 0.26; (37 °C) -2.6 ± 0.29. The corresponding values for UUCGAGCAAUAUUACGUCCG are -3.05 ± 0.24 and -1.24 ± 0.28.

Turning to GGAAAGCAAUAUUACGAGAC, the “self-splicing fitness (ln)” value reads like this: (30 °C) -3.69 ± 0.17; (37 °C) -1.96 ± 0.11. For AUUGAGCAAUAUUACGUAUC, the “self-splicing fitness (ln)” value (30 °C) is -1.48 ± 0.36.

Take UCCGAGCAAUAUUACGCUGC: the “self-splicing fitness (ln)” value was -2.96 ± 0.24 (30 °C) and -1.84 ± 0.31 (37 °C). On to UGCUAGCAAUAUUACGUCCU, for which the “self-splicing fitness (ln)” value (30 °C) is -1.19 ± 0.12 and the “self-splicing fitness (ln)” value (37 °C) was -0.143 ± 0.14.

As to UAAUAGCAAUAUUACGAAUC, the “self-splicing fitness (ln)” value was -4.21 ± 0.31 (30 °C) and -2.34 ± 0.39 (37 °C). As to UCCCAGCAAUAUUACGUGUG, the “self-splicing fitness (ln)” value runs as follows: (30 °C) -3.46 ± 0.094; (37 °C) -2.32 ± 0.093. The corresponding values for CGCAAGCAAUAUUACGAAGG are -1.28 ± 0.098 and -0.75 ± 0.15.

With ACACAGCAAUAUUACGGUAC, the “self-splicing fitness (ln)” value is -4.03 ± 0.23 (30 °C) and -2.03 ± 0.14 (37 °C). The corresponding values for CCCAAGCAAUAUUACGUGAU are -3.67 ± 0.13 and -2.45 ± 0.16. The corresponding values for GAAUAGCAAUAUUACGGCAU are -0.386 ± 0.065 and -0.0278 ± 0.083. The corresponding values for CACGAGCAAUAUUACGAAUC are -3.87 ± 0.35 and -2.93 ± 0.25.

Turning to ACGAAGCAAUAUUACGCCCC, the “self-splicing fitness (ln)” value reads like this: (30 °C) -0.521 ± 0.21; (37 °C) -2.24 ± 0.39. In the case of UGUGAGCAAUAUUACGUAAC, the “self-splicing fitness (ln)” value is, setting by setting: (30 °C) -3.16 ± 0.28; (37 °C) -2.25 ± 0.38. The corresponding values for UAAAAGCAAUAUUACGAGAA are -2.18 ± 0.24 and -0.995 ± 0.16. For UACCAGCAAUAUUACGUGCA the same measures were -0.43 ± 0.065 and 0.246 ± 0.09. Take UGCAAGCAAUAUUACGGUAG: the “self-splicing fitness (ln)” value (30 °C) is -0.738 ± 0.073 and the “self-splicing fitness (ln)” value (37 °C) was -0.376 ± 0.081.

Consider GCCGAGCAAUAUUACGUUUA, for which the “self-splicing fitness (ln)” value was -2.56 ± 0.17 (30 °C) and 0.181 ± 0.12 (37 °C).

For the sequence AGCUAGCAAUAUUACGGUCG, the “self-splicing fitness (ln)” value is -0.942 ± 0.072 (30 °C) and 0.371 ± 0.1 (37 °C). As for AUCAAGCAAUAUUACGUUUA, the “self-splicing fitness (ln)” value runs as follows: (30 °C) -1.73 ± 0.1; (37 °C) -1.31 ± 0.093. The corresponding values for GUAUAGCAAUAUUACGCCGA are -2.97 ± 0.41 and -0.946 ± 0.36. On to GCAGAGCAAUAUUACGCAAG, for which the “self-splicing fitness (ln)” value was -3.03 ± 0.16 (30 °C) and -2.28 ± 0.17 (37 °C). Turning to UUAGAGCAAUAUUACGUCCA, the “self-splicing fitness (ln)” value was -1.31 ± 0.22 (30 °C) and -1.71 ± 0.37 (37 °C).

For GUGCAGCAAUAUUACGGAUC, the “self-splicing fitness (ln)” value stood at 0.0925 ± 0.13 (30 °C) and 0.198 ± 0.14 (37 °C). The corresponding values for CCCUAGCAAUAUUACGGAAU are -3.36 ± 0.37 and -1.82 ± 0.31. For GCGGAGCAAUAUUACGUGGA the same measures were -3.37 ± 0.38 and -2.38 ± 0.42. For GCAUAGCAAUAUUACGCCCA the same measures were -2.41 ± 0.19 and -0.965 ± 0.16. Regarding GACCAGCAAUAUUACGUCUC, the “self-splicing fitness (ln)” value by setting is: (30 °C) -0.562 ± 0.044; (37 °C) -0.159 ± 0.064. The corresponding values for GCGUAGCAAUAUUACGUCAG are -1.8 ± 0.4 and -1.23 ± 0.4. In the case of GAACAGCAAUAUUACGUAGU, the “self-splicing fitness (ln)” value is -1.55 ± 0.06 (30 °C) and -0.106 ± 0.075 (37 °C).

For the sequence AAUCAGCAAUAUUACGGAAA, the “self-splicing fitness (ln)” value (30 °C) is -1.19 ± 0.099 and the “self-splicing fitness (ln)” value (37 °C) came out at 0.0734 ± 0.12. For CGCGAGCAAUAUUACGGCGU the same measures were -4.64 ± 0.34 and -2.9 ± 0.29. For CUGGAGCAAUAUUACGCCAG, the “self-splicing fitness (ln)” value (37 °C) was -2.59 ± 0.33. Still for that read-out and setting: the figure for AGUGAGCAAUAUUACGCUAA is -2.09 ± 0.26.

As for GUUUAGCAAUAUUACGGUCU, the “self-splicing fitness (ln)” value by setting is: (30 °C) -1.44 ± 0.12; (37 °C) -1.05 ± 0.13.

With CCCGAGCAAUAUUACGGUGA, the “self-splicing fitness (ln)” value is -2.19 ± 0.1 (30 °C) and -1.32 ± 0.097 (37 °C). The corresponding values for AAAAAGCAAUAUUACGGCUG are -0.648 ± 0.085 and -0.345 ± 0.13. On to CAUCAGCAAUAUUACGGGAU, for which the “self-splicing fitness (ln)” value (37 °C) was -1.88 ± 0.22. Regarding CGGUAGCAAUAUUACGAACU, the “self-splicing fitness (ln)” value is, setting by setting: (30 °C) -1.3 ± 0.17; (37 °C) -0.755 ± 0.17. Regarding GAAAAGCAAUAUUACGCCUG, the “self-splicing fitness (ln)” value (30 °C) is -0.929 ± 0.081 and the “self-splicing fitness (ln)” value (37 °C) was -0.273 ± 0.11. With ACGCAGCAAUAUUACGGCCC, the “self-splicing fitness (ln)” value (30 °C) is -0.00164 ± 0.16 and the “self-splicing fitness (ln)” value (37 °C) was 0.0347 ± 0.18.

Consider GCCCAGCAAUAUUACGCACA, for which the “self-splicing fitness (ln)” value reads like this: (30 °C) -0.537 ± 0.092; (37 °C) -0.518 ± 0.094. Regarding UUGGAGCAAUAUUACGCUCU, the “self-splicing fitness (ln)” value (30 °C) was -4.19 ± 0.39. On to ACACAGCAAUAUUACGUACU, for which the “self-splicing fitness (ln)” value is -0.335 ± 0.05 (30 °C) and 0.175 ± 0.065 (37 °C). Consider UCAGAGCAAUAUUACGAACU, for which the “self-splicing fitness (ln)” value (30 °C) was -2.02 ± 0.33. Consider GACGAGCAAUAUUACGUACC, for which the “self-splicing fitness (ln)” value is, setting by setting: (30 °C) -3.61 ± 0.28; (37 °C) -1.75 ± 0.21. The corresponding values for GAGCAGCAAUAUUACGAUGG are -3.68 ± 0.25 and -2.61 ± 0.31. For GGCCAGCAAUAUUACGAUCG the same measures were -3.35 ± 0.3 and -1.27 ± 0.15. Take AUGUAGCAAUAUUACGGACU: the “self-splicing fitness (ln)” value by setting is: (30 °C) -0.734 ± 0.11; (37 °C) -0.231 ± 0.14. For AGCAAGCAAUAUUACGGCUA the same measures were -1.07 ± 0.088 and -0.869 ± 0.093. The corresponding values for UUGGAGCAAUAUUACGUCCG are -2.22 ± 0.29 and -1.27 ± 0.4. For AAGAAGCAAUAUUACGGGAG the same measures were -2.62 ± 0.12 and -1.47 ± 0.11.

For the sequence GAGAAGCAAUAUUACGGCAG, the “self-splicing fitness (ln)” value (30 °C) was -3.08 ± 0.41 and the “self-splicing fitness (ln)” value (37 °C) was -1.85 ± 0.3. Consider UAGAAGCAAUAUUACGGUGA, for which the “self-splicing fitness (ln)” value runs as follows: (30 °C) -1.28 ± 0.12; (37 °C) -0.667 ± 0.12. For AAGAAGCAAUAUUACGUUUU the same measures were -3.3 ± 0.11 and -1.33 ± 0.091. The corresponding values for UAUCAGCAAUAUUACGAAGU are -2.82 ± 0.28 and -0.868 ± 0.29. The corresponding values for AAGCAGCAAUAUUACGUGUG are -2.67 ± 0.083 and -1.92 ± 0.11.

As to UAGAAGCAAUAUUACGCCUU, the “self-splicing fitness (ln)” value was -1.03 ± 0.22 (30 °C) and -1.38 ± 0.26 (37 °C). The corresponding values for GCCGAGCAAUAUUACGACCA are -2.62 ± 0.3 and -2.31 ± 0.31. Regarding ACAGAGCAAUAUUACGCACU, the “self-splicing fitness (ln)” value reads like this: (30 °C) -3.25 ± 0.17; (37 °C) -1.33 ± 0.14.
